Laboratory results: article PMC3514286 (PLoS ONE, 2012)
Numbering of substitutions follows the chain as printed. Names may count otherwise. Values belong to the binder of their own block, whether it stands above or below them.

Key:
GroES [1] = target: T1, GroES (E. coli, UniProt P0A6F9 1-97); assay: cell-based or functional assay
T1 sequence: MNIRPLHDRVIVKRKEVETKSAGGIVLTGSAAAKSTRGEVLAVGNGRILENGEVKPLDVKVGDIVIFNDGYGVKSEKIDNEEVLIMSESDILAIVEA

mHsp10 L33A mutant = mHsp10 L33A mutant (human, UniProt P61604 1-102, L33A); assay: cell-based or functional assay
Sequence of mHsp10 L33A mutant (P61604 whole entry L33A): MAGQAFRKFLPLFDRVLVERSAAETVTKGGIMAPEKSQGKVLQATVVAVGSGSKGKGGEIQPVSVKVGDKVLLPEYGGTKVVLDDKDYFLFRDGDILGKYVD

GroES L27A mutant = target: T2, GroES L27A mutant (E. coli, UniProt P0A6F9 1-97, L27A); assay: cell-based or functional assay
T2 sequence: T1 sequence with L27A

GroES [2] = target: T1, GroES; assay: SPR; ProteOn XPR36; GroES or mHsp10 immobilised by amine coupling on a GLC chip; six concentrations of each mHsp60 variant injected; 20 mM Na-HEPES pH 7.5, 100 mM KCl, 10 mM MgCl2, 0.005% Tween, 2 mM ATP; apparent constants from equilibrium analysis; details: both partners purified
[3] = target: mitochondrial Hsp10, hexa-histidine-tagged (human, UniProt P61604 1-102); assay: cell-based or functional assay
Sequence of mitochondrial Hsp10, hexa-histidine-tagged (P61604 whole entry): as the sequence (P61604 whole entry L33A) above, with A33L counted along it

inhibition of the chaperonin's steady-state ATPase activity by co-chaperonin (2:1 co-chaperonin:chaperonin) (GroES [1]): 0% | inhibition of the chaperonin's steady-state ATPase activity by co-chaperonin (2:1 co-chaperonin:chaperonin) (mHsp10 L33A mutant): 0% | inhibition of the chaperonin's steady-state ATPase activity by co-chaperonin (2:1 co-chaperonin:chaperonin) (GroES L27A mutant): 0%
B1: human mitochondrial Hsp60, wild type (natural protein, UniProt P10809 27-573, looked up)
chain: AKDVKFGADARALMLQGVDLLADAVAVTMGPKGRTVIIEQSWGSPKVTKDGVTVAKSIDLKDKYKNIGAKLVQDVANNTNEEAGDGTTTATVLARSIAKEGFEKISKGANPVEIRRGVMLAVDAVIAELKKQSKPVTTPEEIAQVATISANGDKEIGNIISDAMKKVGRKGVITVKDGKTLNDELEIIEGMKFDRGYISPYFINTSKGQKCEFQDAYVLLSEKKISSIQSIVPALEIANAHRKPLVIIAEDVDGEALSTLVLNRLKVGLQVVAVKAPGFGDNRKNQLKDMAIATGGAVFGEEGLTLNLEDVQPHDLGKVGEVIVTKDDAMLLKGKGDKAQIEKRIQEIIEQLDVTTSEYEKEKLNERLAKLSDGVAVLKVGGTSDVEVNEKKDRVTDALNATRAAVEEGIVLGGGCALLRCIPALDSLTPANEDQKIGIEIIKRTLKIPAMTIAKNAGVEGSLIVEKIMQSSSEVGYDAMAGDFVNMVEKGIIDPTKVVRTALLDAAGVASLLTTAEVVVTEIPKEEKDPGMGAMGGMGGGMGGGMF

KA ratio (apparent KA relative to that of mHsp60 and mHsp10) (GroES [2]): 1.43 ratio | inhibition of the chaperonin's steady-state ATPase activity by co-chaperonin (2:1 co-chaperonin:chaperonin) (GroES [1]): 30% | inhibition of the chaperonin's steady-state ATPase activity by co-chaperonin (2:1 co-chaperonin:chaperonin) (mHsp10 L33A mutant): 26% | inhibition of the chaperonin's steady-state ATPase activity by co-chaperonin (2:1 co-chaperonin:chaperonin) (GroES L27A mutant): 0%
B2: human mitochondrial Hsp60 E321K mutant (natural protein, UniProt P10809 27-573, looked up)
chain: B1 chain with E321K
notes: human mitochondrial Hsp60 with E321K, isolated from an error-prone PCR library; also called E321K mHsp60; source: expressed in bacteria, purified as oligomers

inhibition of the chaperonin's steady-state ATPase activity by co-chaperonin (2:1 co-chaperonin:chaperonin) (GroES [1]): 47% | inhibition of the chaperonin's steady-state ATPase activity by co-chaperonin (2:1 co-chaperonin:chaperonin) (mHsp10 L33A mutant): 40% | inhibition of the chaperonin's steady-state ATPase activity by co-chaperonin (2:1 co-chaperonin:chaperonin) [3]: 48% | inhibition of the chaperonin's steady-state ATPase activity by co-chaperonin (2:1 co-chaperonin:chaperonin) (GroES L27A mutant): 0%
B3: human mitochondrial Hsp60 R264K/E358K double mutant (natural protein, UniProt P10809 27-573, looked up)
chain: B1 chain with R264K, E358K
notes: human mitochondrial Hsp60 with R264K and E358K, isolated from an error-prone PCR library; also called R264K/E358K mHsp60; source: expressed in bacteria, purified as oligomers
